Laboratory results as given in PMC6627055, “Enantioselective Hydrolysis of Styrene Oxide and Benzyl Glycidyl Ether by a Variant of Epoxide Hydrolase from Agromyces mediolanus” (Marine Drugs, 2019).

Tests used:
Assay in all cases: initial rate of epoxide hydrolysis, chiral HPLC
Assay type in all cases: biochemical, Agromyces mediolanus
Conditions in all cases: phosphate buffer 0.2 M, pH 8.0, 30 °C (general activity assay), enantiopure substrate
c1ccc([C@@H]2CO2)cc1 = system: T1, c1ccc([C@@H]2CO2)cc1
T1 construct: synthetic gene, triple variant, C-terminal His6 (3' end of gene) in pET28a NcoI/XhoI, E. coli BL21(DE3), Ni-NTA purified, about 43 kDa
Description: (§1) initial rate of epoxide hydrolysis, chiral HPLC on vEH-Am

c1ccc(COC[C@@H]2CO2)cc1 = system: T2, c1ccc(COC[C@@H]2CO2)cc1
T2 construct: synthetic gene, triple variant, C-terminal His6 (3' end of gene) in pET28a NcoI/XhoI, E. coli BL21(DE3), Ni-NTA purified, about 43 kDa
Description: as §1

c1ccc(COC[C@H]2CO2)cc1 = system: T3, c1ccc(COC[C@H]2CO2)cc1
T3 construct: synthetic gene, triple variant, C-terminal His6 (3' end of gene) in pET28a NcoI/XhoI, E. coli BL21(DE3), Ni-NTA purified, about 43 kDa
Description: as §1

c1ccc([C@H]2CO2)cc1 = system: T4, c1ccc([C@H]2CO2)cc1
T4 construct: synthetic gene, triple variant, C-terminal His6 (3' end of gene) in pET28a NcoI/XhoI, E. coli BL21(DE3), Ni-NTA purified, about 43 kDa
Description: as §1

vEH-Am (Agromyces mediolanus; N240D/S207V/W182F)
Km (c1ccc([C@@H]2CO2)cc1): 5.2 mM | Km (c1ccc(COC[C@@H]2CO2)cc1): 36.5 mM | Km (c1ccc(COC[C@H]2CO2)cc1): 9.3 mM | Km (c1ccc([C@H]2CO2)cc1): 0.9 mM
